Source: US20240317871A1 (IMMUNOMIC THERAPEUTICS, published 2024)

Tests used:
[1] = target: T1, cynomolgus monkey HVEM (cynomolgus monkey, UniProt A0A2K5W0R1 39-203); experiment: ELISA
T1 sequence: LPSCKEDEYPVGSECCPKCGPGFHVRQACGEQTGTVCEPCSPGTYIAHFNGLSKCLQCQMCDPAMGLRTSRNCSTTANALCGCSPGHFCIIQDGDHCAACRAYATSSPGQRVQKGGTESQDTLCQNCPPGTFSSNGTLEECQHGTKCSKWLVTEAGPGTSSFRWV

[2] = target: T2, murine HVEM (murine, UniProt Q80WM9 39-206, limits assumed); experiment: ELISA
T2 construct: also called Mouse
T2 sequence (looked up): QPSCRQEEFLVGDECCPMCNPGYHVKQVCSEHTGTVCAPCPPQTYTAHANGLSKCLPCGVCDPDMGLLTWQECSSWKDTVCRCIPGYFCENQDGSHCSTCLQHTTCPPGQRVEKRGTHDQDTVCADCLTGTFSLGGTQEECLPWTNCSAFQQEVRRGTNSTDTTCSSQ

[3] = target: T3, human HVEM (human, UniProt Q92956 39-202, limits assumed); experiment: ELISA
T3 sequence (looked up): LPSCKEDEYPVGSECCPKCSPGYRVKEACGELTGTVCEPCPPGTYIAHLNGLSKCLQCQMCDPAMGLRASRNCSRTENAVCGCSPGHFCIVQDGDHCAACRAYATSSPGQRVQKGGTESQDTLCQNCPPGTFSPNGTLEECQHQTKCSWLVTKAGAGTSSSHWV

[4] = target: T4, His-tagged human HVEM (human, UniProt Q92956 39-202, limits assumed); experiment: BLI OctetRed96, mAb captured, 200 nM His-HVEM
T4 construct: Analyte of the BLI assay, 200 nM in PBS; not shown: His tag
T4 sequence (looked up): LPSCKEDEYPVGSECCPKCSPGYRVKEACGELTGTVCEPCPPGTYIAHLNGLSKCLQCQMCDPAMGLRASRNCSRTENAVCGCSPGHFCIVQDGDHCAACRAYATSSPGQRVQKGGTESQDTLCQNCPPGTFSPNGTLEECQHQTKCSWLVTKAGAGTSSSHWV
Protocol: Binding of antibodies to HVEM may also be determined by bio-layer interferometry (BLI) on an OctetRed96@ system (Sartorius). (See http://www.fortebio.com/bli_technology.html for general description of a BLI assay.) For this experiment, murine anti-human HVEM antibodies were captured from culture supernatant using anti-mouse IgG Fc capture and immobilized to dip and read biosensors. Sensors were then dipped into a solution of 200 nM His-tagged human HVEM in phosphate-buffered saline (PBS). Probes were dipped into PBS assay buffer and the dissociation rate (koff) was measured. The association rate (kₒₙ) and affinity (KD) were determined by curve fitting analysis.

[5] = target: T5, Human HEVM recombinant protein (Sino Biological, 10334-H02H) (human, UniProt Q92956 39-202); experiment: competition ELISA, competitor BTLA-His
T5 construct: construct known only by catalogue number; also called HVEM; human HVEM
T5 sequence (looked up): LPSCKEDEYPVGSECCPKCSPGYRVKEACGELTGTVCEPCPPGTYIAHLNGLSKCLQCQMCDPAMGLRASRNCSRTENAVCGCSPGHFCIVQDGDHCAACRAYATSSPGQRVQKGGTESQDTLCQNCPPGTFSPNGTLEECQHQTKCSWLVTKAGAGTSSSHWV
Protocol: The competitive activity of HVEM antibody to BTLA or LIGHT was evaluated with ELISA-based competitive assay. Briefly Human HEVM recombinant protein (Sino Biological, 10334-H02H, 4 ug/ml, 100 ul/well) was coated to ELISA plate (Thermo Scientific, 469949, 4C overnight). A pre-mixture of HVEM antibody clone with seral dilution and 400 nM BTLA-His (R&D systems, 9235-BT-050) or LIGHT-His (SinoBiological, 10386-H07H) recombinant protein was made and added to the ELISA plate after blocking with 3% BSA (200 ul/well, RT 2 Hr) for 1 Hr at RT. The serial dilutions of HVEM antibody clone involve 7 different concentrations, with a 3-fold dilution performed start from 100 nM for BTLA or 325 nM for LIGHT competitive assay. The concentration was the final concentration. Plate was washed with PBST; diluted HRP-anti-His (Biolegend, 652504, 1:1000) with PBS containing 5% FBS was added 100 ul per well for 1 Hr at RT. TMB substrate (KPL, 52-00-00) 100 ul per well after washing and incubate at room temperature for 15 minutes; then stop the development by adding 100 ul stop solution (KPL, 50-85-06). Plate was read at 450 nm. The IC50 was calculated using GraphPad Prism software (GraphPad Software, Inc. San Diego, CA, USA).

B1: Ab_004 (H5S14-24A4A) (antibody, V domains shown)
VH: EVQLQQSGPELVKPGTSVKISCKTSGYTITEYTMHWVKQSHGKSLEWIGGINPNNGGTINNQKFKDKATLTVDMSSSTAYMELRSLTSEDSAVYYCAGSVVDRYWYFDVWGAGTTVTVSS
VL: QIVLTQSPAIMSASPGEKVTISCSASSSVSYMYWYQQKPGSSPKPWIYRTSNLASGVPARFSGSGSGTSYSLTISSMEAEDAATYYCQQYHSYPLTFGAGTKLELK
notes: also called Ab_4
- ELISA signal [1]: 0.062
- ELISA signal [2]: 0.044
- ELISA signal [3]: 2.42
- kon [4]: 769 M⁻¹ s⁻¹

B2: Ab_005 (H5S14-4A4A) (antibody, V domains shown)
VH: EVQLQQSGPELVKPGASVKISCKTSGYTFTEYTMHWVKQSHGKSLEWIGGINPYNGGTINNQKFKGKATLTVDMSSSTAYMELRSLTSEDSAVYYCAGSVVDRYWYFDVWGAGTTVTVSS
VL: QIVLTQSPAIMSASPGEKVTISCSASSSVSYMYWYQQKPGSSPKPWIYRTSNLASGVPARFSGSGSGTSYSLTISSMEAEDAATYYCQQYHSYPLTFGAGTKLELK
notes: also called Ab_5
- ELISA signal [1]: 0.063
- ELISA signal [2]: 0.048
- ELISA signal [3]: 2.44
- kon [4]: 2240 M⁻¹ s⁻¹

B3: Ab_008 (H5S14-11A10A) (antibody, V domains shown)
VH: EVKLVESGGGLVKPGGSLRLSCAASGFTFSSFAMSWIRQTPEKGLEWVASITTGGSSYSPDSLKGRFTISRDNVRNIVYLQMSSLRSEDTAMYACARGGGGNYFWFAYWGQGTLVTVSA
VL: DVVMTQTPLSLPVSLGDQASISCRSSQSLVHSNGNTYLHWYLQKPGQSPKLLIYKVSNRFSGVPDRFSGSGSGTDFTLKISRVEAEDLGVYFCSQSIHVPFTFGSGTKLEIK
notes: also called Ab_8
- IC50 [5]: 1.9 nM
- ELISA signal [1]: 2.94
- ELISA signal [2]: 0.077
- ELISA signal [3]: 3.4
- Kd [4]: 4.8 nM
- koff [4]: 0.00231 s⁻¹
- kon [4]: 482000 M⁻¹ s⁻¹

B4: Ab_085 (H5S20-53A41A) (antibody, V domains shown)
VH: EVQLVESGGGLVKPGGSLKLSCAASGFTFSSYAMSWVRQSPEKRLEWVAEISSGGSYTYYPDTVTGRFTISRDNAKNTLYLEMSSLRSEDTAMYYCAREGLRRDYYALDYWGQGTSVTVSS
VL: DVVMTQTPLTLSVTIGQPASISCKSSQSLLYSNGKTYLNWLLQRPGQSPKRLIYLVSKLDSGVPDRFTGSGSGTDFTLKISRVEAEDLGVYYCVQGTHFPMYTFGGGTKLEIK
notes: also called Ab_85
- ELISA signal [1]: 0.061
- ELISA signal [2]: 0.046
- ELISA signal [3]: 0.049

B5: Ab_073 (H5S20-9A9A) (antibody, V domains shown)
VH: EVQLQQSGADLVKPGASVKLSCTASGFNIRDTYMHWVNQRPEQGLEWIGRIDPANGNTKYAPKFQGRATITADTSSNTAYLHLSSLTSEDTAVYYCAGYGNSPWFAYWGQGTLVTVSA
VL: DVLMTQTPLSLPVNLGDQASISCRSSQSIVHSNGNTYLEWYLQKPGQSPKLLIYKVSNRFSGVPDRFSGSGSGTDFTLKISRVEAEDLGVYYCFQGSHVPLTFGAGTKLELK
notes: also called Ab_73
- IC50 [5]: 3.2 nM
- ELISA signal [1]: 0.062
- ELISA signal [2]: 0.045
- ELISA signal [3]: 3.24
- Kd [4]: 370 nM
- koff [4]: 0.109 s⁻¹
- kon [4]: 294000 M⁻¹ s⁻¹

B6: Ab_074 (H5S20-52A21A) (antibody, V domains shown)
VH: EVQLQQSGAELVKPGASVKLSCTASGFNIKDTYIHWLNQRPEQGLEWIGRIDPANGKTKFAPKFQDKATITADTSSNTAYLQLSSLTSEDTAVYYCAGYGNSPWFAYWGQGTLVTVSA
VL: DVLMTQTPLSLPVSLGDQASISCRSSQSIVHSNGNTYLEWYLQKPGQSPKLLIYKVSNRVSGVPDRFSGSGSGTDFTLKISRVEAEDLGVYYCFQGSHVPLTFGAGTKLELK
notes: also called Ab_74
- IC50 [5]: 1.6 nM
- ELISA signal [1]: 0.06
- ELISA signal [2]: 0.044
- ELISA signal [3]: 3.26
- Kd [4]: 48.2 nM
- koff [4]: 0.0272 s⁻¹
- kon [4]: 565000 M⁻¹ s⁻¹

B7: Ab_055 (H5S19-1A1A) (antibody, V domains shown)
VH: DVQLQESGPGLVKPSQSLSLTCTVTGYSITSDYAWNWIRQFPGNKLEWMGYIAYSGGTSYSPSLKSRISITRDTSKNQFFLQLNSVTTEDTATYYCVYFKYGGAFAYWGQGTLVTVSA
VL: NIVLTQSPASLAVSLGQRATISCRASESVDSYGNSLMHWYQQKPGQPPKLLIYLASNLESGVPARFSGSGSRTDFTLTIDPVEADDAATYYCQQNNEDPPTFGGGTKLEI
notes: also called Ab_55
- ELISA signal [1]: 2.21
- ELISA signal [2]: 0.042
- ELISA signal [3]: 2.95
- Kd [4]: 544 nM
- koff [4]: 0.0164 s⁻¹
- kon [4]: 30200 M⁻¹ s⁻¹

B8: Ab_077 (H5S20-31A16B) (antibody, V domains shown)
VH: EVQLQQSGAELVRSGASVKLSCTTSGFNIKDYYMHWVKQRPEQGLEWIGWIDPENGDTEYAPKFQGKATMTADTSSNTAYLQLSSLTSEDTAVYYCNSRTLGYWGQGTLVTVSA
VL: QIVLTQSPALMSASPGEKVTMTCSASSSVSFIYWYQQKPRSSPKPWIYLTSNLASGVPARFSGSGSGTSYSLTISSMEAEDAATYYCQQWSSNPLTFGAGTKLEL
notes: also called Ab_77
- ELISA signal [1]: 0.079
- ELISA signal [2]: 0.043
- ELISA signal [3]: 0.147
- Kd [4]: 12400 nM
- koff [4]: 1.08 s⁻¹
- kon [4]: 86600 M⁻¹ s⁻¹

B9: Ab_053 (H5S19-20A20A) (antibody, V domains shown)
VH: QVQLKESGPGLVAPSQSLSITCTVSGFSLTSYGVHWVRQPPGKGLEWLGVIWAGGITNYNSALMSRLSISKDNSKSQVFLKMNSLQTDDTAMYYCARDWERDSSGPFVYWGQGTLVTVSA
VL: DIQMTQTTSSLSASLGDRVTISCTASQGISNYLNWYQQKPDGTVKLLIYYTSTLHSGVPSRFSGSGSGTDYSLTISNLEPEDIATYYCQQYFKLPWTFGGGTKLEIK
notes: also called Ab_53
- ELISA signal [1]: 2.1
- ELISA signal [2]: 0.042
- ELISA signal [3]: 2.89
- Kd [4]: 103 nM
- koff [4]: 0.00439 s⁻¹
- kon [4]: 42700 M⁻¹ s⁻¹

B10: Ab_052 (H5S19-18A17B) (antibody, V domains shown)
VH: QVQLKESGPGLVAPSQSLSITCTVSGFSLTIYGVHWVRQPPGKGLEWLGVIWAGGIINYNSALMSRLSISKDNSKSQVFLKMNSLQSDDTAMYYCARDWERDSSGPFAYWGQGTLVTVSA
VL: DIQMTQTTSSLSASLGDRVTISCSASQGISNYLNWYQQKPDGTVKLLIYYTSSLHSGVPSRFRGSGSGTDYSLTISNLEPEDIATYYCQQYSKLPWTFGGGTKLEIK
notes: also called Ab_52
- ELISA signal [1]: 2.32
- ELISA signal [2]: 0.042
- ELISA signal [3]: 2.88
- Kd [4]: 90.9 nM
- koff [4]: 0.00734 s⁻¹
- kon [4]: 80700 M⁻¹ s⁻¹

B11: Ab_034 (H5S15-16A11B) (antibody, V domains shown)
VH: DVQLVESGGGLVQPGGSRKLSCAASGFTFSSFGMHWVRQAPEKGLEWVAHISSGSSTIYYADTVKGRFTISRDNPKNTLFLQMTSLRSEDTAMYYCARGAYGNFAWFPYWGQGTLVTVSA
VL: DVVMTQTPLSLSVSLGDQASISCRSSQSLVHSNGNTYLHWYLQKPGQSPKLLIYKVSNRFSGVPDRFSGSGSGTDFTLKISRVEAEDLGVYFCSQSTHVPTFGSGTKLEIK
notes: also called Ab_34
- IC50 [5]: 1.3 nM
- ELISA signal [2]: 0.045
- ELISA signal [3]: 3.19
- Kd [4]: 8.67 nM
- koff [4]: 0.00235 s⁻¹
- kon [4]: 270000 M⁻¹ s⁻¹

B12: Ab_035 (H5S15-9A10A) (antibody, V domains shown)
VH: DVQLVESGGGLVQPGGSRKLSCAASGFTFSDFGMHWVRQAPEKGLEWVAHISSGSSTIYYADTVKGRFTISRDNPKNTLFLQMTSLRSEDTAMYYCARGAYGNFAWFPYWGQGTLVTVSA
VL: DVVMTQTPLSLPVSLGDQASISCRSSQSLVHTNGNTYLHWYLQKPGQSPRLLIYKVSNRFSGVPDRFSGGGSGTDFTLKISRVEAEDLGVYFCSQSTHVPTFGSGTKLEIK
notes: also called Ab_35
- IC50 [5]: 1.4 nM
- ELISA signal [2]: 0.045
- ELISA signal [3]: 3.2
- Kd [4]: 6.58 nM
- koff [4]: 0.00235 s⁻¹
- kon [4]: 357000 M⁻¹ s⁻¹

B13: Ab_058 (H5S19-6A8A) (antibody, V domains shown)
VH: EVQLVESGGGLVKPGGSLKLSCAASGFTFNIYTMSWVRQSPEMRLEWVAEISSGGSHTYYPDTVTGRFTISRDNAKNTLYLEMSSLRSEDTAIYYCARGGSLFDYWGQGTTLTVSS
VL: DVQITQSPSYLAASPGETITINCRTSKNISKYLAWYQEKPGKTNKLLIYSGSTLQSGIPSRFSGSGSGTDFTLTISSLEPEDFVMYHCQQHNEYPWTFGGGTKLEIK
notes: also called Ab_58
- IC50 [5]: 1.3 nM
- ELISA signal [1]: 0.064
- ELISA signal [2]: 0.043
- ELISA signal [3]: 3.16
- Kd [4]: 2.67 nM
- koff [4]: 0.00125 s⁻¹
- kon [4]: 469000 M⁻¹ s⁻¹
